Results published in a protein production outcome set (Wang et al. 2014).

Test: label from the status in PepcDB records

AQKKTQKTYIPWSNGKLVVSEEGRYLKHENGTPFFWLGETGWLLPERLNRDEAEYYLEQCKRRGYNVIQVQTLNNVPSMNIYGQYSMTDGYNFKNINQKGVYGYWDHMDYIIRTAAKKGLYIGMVCIWGSPVSHGEMNVDQAKAYGKFLAERYKDEPNIIWFIGGDIRGDVKTAEWEALATSIKAIDKNHLMTFHPRGRTTSATWFNNAPWLDFNMFQSGHRRYGQRFGDGDYPIEENTEEDNWRFVERSMAMKPMKPVIDGEPIYEEIPHGLHDENELLWKDYDVRRYAYWSVFAGSFGHTYGHNSIMQFIKPGVGGAYGAKKPWYDALNDPGYNQMKYLKNLMLTFPFFERVPDQSVIAGQNGERYDRAIATRGNDYLMVYNYTGRPMEVDFSKISGAKKNAWWYTTKDGKLEYIGEFDNGVHKFQHDSGYSSGNDHVLIVVDSSKDYVKKDCYQIDTHE
protein production: not failed

MKKFLFDLFPLILFFVAYRYADIYAATAVAITASIAQILWLRLTGKAIEGMHWINLSVIVIFGGATLWLHSDVFIKWKPTVLYWLFGGALLGARYLFGRNLVRRLLGKQIALPDPVWERLNLSWALFFVAAGAVNLYVAFSGHFTESQWVNFKVFGLMGLLVAFVIAQSLWLGKHLQASDTPDQDRNED
protein production: not failed

MLEHHFRSLKAIDRVRAQWLGPQIERYVQSLDELHTSNATVRQHIRALGHFNDFVIARGVTKLEALPDHVDAFVEYWHAGHAGWCKNNQDRAAVTAQSRVPVERMLCLALPDYTRPNNRPAMPFANTVPGFLPFLNDEKGLRQESQQRYLYTLRPFEAYLNRGGIALSGLEPAHISRFLEERAKTLHKAGMRDTAGALRIFLRYLHREGIVATDLVRSVPRGRIYRQASIPRAIGWQDVERLLTSIDRRSILGKRDYAILTLLASYGLRAREIAALCLDDFDWTHAQISIPMRKGGHSTRYPLSATVGDAVISYLQARRSDVPHRQVFLTARSPYIPMRHWTVSAMVGIRMRDIGIQVTRAGSHTLRHACVQHLVEADMPFKVIGDYVGHSHPSSTLVYGKVAVHKLRQIVLFQGEDVL
protein production: failed

MSVIATILAYAGLAIVSTVVVWKGSELLESSTEKLSGYYQLPPLVQGSIVLAVGSSFPELSTAVLSAALHGDFELGVAAVVGSALFNILMIPALAGLWAEERLESTRDLIYKETQFYLISIVVLLLMFSFAVIYNPLAGGTDAQVGGVTRGLALLPLALYAVYVYLQYQDTRDHQPEAPPEDIHLPKQGTRLVGSLLIILIGVEGLIRSAVAFGDIFGTPSFLWGITVVAAGTSVPDAFVSIRASRAGNPVTSVANVLGSNIFDLLVCIPAAALVAGTVAINYSVGMPMMGVLSLATLIVLLTMRSEMVLTTPEAWGLIALYLAFVVWMGAETVGTVDLIPHLPPPAHTP
protein production: failed

MKILKISLTVVVEVALIYLFSLLVGWSFMEAFFLGSLAIFGAIWLIALNINQNNNIDHTIYKTGTVKPFQMTWGPYTTGATSLTAFSFIITTIYYLPYFL
protein production: failed

MKGITSLGSKWFVEFEKNNVHNVYDRIAEHFTKTRYRIWPGVELFLKQTSPLDTVLDVGCGNGKNLISYRNLFCIGIDRCVPLVKTCKQRQLETAVADILELPFQSEKFDIVLCIAVLHHLCTRERRILAIQELGRVLRPGGSCLLYVWAANENDGKDEVKNTKAREKMRFLDENKQEALIPWVVIDHEKKATQLEKNLKQPSTFTLERYYHLYRQGELEEECLQSNCFHIQHSYYEQSNWCVVLDKKS
protein production: not failed

MENFDEVIKEYQKYLEGKEKTHKINSCKHPCCEEDNLKSVKNYFKVYHKKYIPSIIQKKKKERNEHAPPLLKDIQDKRCTNVFERLNDKQFYTGVQKTKFMELLKNNKNKSSYCYNNIKVFSTMLKKPCNYVVTPGTLGIQKYGIQTGRPKTIFLFNNEKKYDKGVYFLVKSYIKNIKSLCYEITKILQPSIGPTRKIYDQNFSLVRNVNDLINGGKYLCTSGDPPAPIRNLSLHFLT
protein production: failed

MFLTVKLLLGQRCSLKVSGQESVATLKRLVSRRLKVPEEQQHLLFRGQLLEDDKHLSDYCIGPNASINVIMQPLEKMAL
protein production: failed

MSLQLDEYLRQLAPSMTQWRRDFHLHAESGWLEFRTASKVADILDGLGYQLALGRDVIDADSRMGLPDEETLARAFERAREQGAPERWLPAFEGGFAGVVATLDTGRPGPTLAFRVDMDALDLNEQHDDSHRPHRDHFASCNAGMMHACGHDGHTAIGLGLAHVLKQYAAQLNGVIKLIFQPAEEGTRGARAMVAAGVVDDVDYFTAIHIGTGVPAGTVVCGGDNFMATTKFDVQFSGVAAHAGGKPEDGRNALLAAAQAALGLHAIPPHSAGASRVNVGVMQAGTGRNVVPSSALLKVETRGESEAINQYVFERAQHVVAGAAAMYEARYELRMMGAATASAPSPAWVDYLREQAARVPGVQQAVDRIAAPAGSEDATLMMARVQARGGLASYMIFGTELSAGHHNEKFDFDESVMAVAVETLARVALNFPWQRGVEGHHHHHH
protein production: not failed

MVSFDHATLGYITFVLMNFSMLSGAFIFLSKKKQHWIKVHLLVSILTYIFMVWTIWVVR
protein production: failed

ISLAVLAVSIIFLGVTVIQNKKKIDPALKELSSVTQAMQKQIEGLKTETELLTQKQKKIQQDVQIKKYTLQQTAAEVKEVPQAVKEVWQA
protein production: not failed

MAKYETPPPVRPLEKLITDFSYTNGLDPVNVFNDFLTYIIHGFSPGAPPLQNWKYKRLQNMKFMEMLTGWVQLMASRIKDDTSWYDPFGDLYMALVSKSAQQSQGQFFTPVHICDLMVLCTQTEEKMTGQRMGDPTCGSGRLLLAYHARNPENYLIGEDINRTCCLMTVCNMLIHGCVGEVICHDSLNPGNFVDGWKVNPMLTWTGIPTIKRMNMKEYRAGRNLPASPYIIRKTMLAGSRKHKTDSLLPLQAVFKMLEHHHHHH
protein production: not failed

MNSTLFSQVENHSVHSNFSEKNAQLLAFENDDCHLPLAMIFTLALAYGAVIILGVSGNLALIIIILKQKEMRNVTNILIVNLSFSDLLVAIMCLPFTFVYTLMDHWVFGEAMCKLNPFVQCVSITVSIFSLVLIAVERHQLIINPRGWRPNNRHAYVGIAVIWVLAVASSLPFLIYQVMTDEPFQNVTLDAYKDKYVCFDQFPSDSHRLSYTTLLLVLQYFGPLCFIFICYFKIYIRLKRRNNMMDKMRDNKYRSSETKRINIMLLSIVVAFAVCWLPLTIFNTVFDWNHQIIATCNHNLLFLLCHLTAMISTCVNPIFYGFLNKNFQRDLQFFFNFCDFRSRDDDYETIAMSTMHTDVSKTSLKQASPVAFKKINNNDDNEKI
protein production: failed

MEERELTLSDILLMFKRRSKLFWLVLVLTVFATGIYLFLATPQYEAYARVKVSTQKGMRLGLSIEGLLGGLSSLLGGGGSQEDEIQIMLSRRNIIAVIDELDLVHKLLDEKDIEKAKKNGLTEDDLKLSLYSYMVEKLITVEPVKNSSILEVKVTWHEPKLAAEIANKIVENYTKISENIAKSQLGAKMDFLEEQIPKVEQELKEAESKLKVFKEQNRIYSVEAQTQVLIDRYASLLQKMEEARIAMEATQKQSEFFSKELKDLDIEIEQIKDSITFDPIISQLKSNMINIQIELAGLMERYTETNPAVVQKKAELQETQKQLEIELKRLLTSQVKKTGNPVYEEALSSLIKAESEKILYQSQYEAFKKLYEDMEKELSKLPELEQKLIELERDYKVKETIYTTLLQAKYESLISEAAITANANVIDWAVPPLEPSKPNKKLTLAIGGVLGIFLGILAVFFAEFSDRRIKSESEAEYLLGLEKIVARVPLTQNEEVMEKALGIPAVKSGKVTFITALEDGAGVSTLAKHMAKLLSKKEKVLLLTEEKVEGTFDRKDVFDLLKNPDVLEELKERYDKIIVDAPSLKRTPDFLPIAEKSDTVYIVIRLEHTLSEDLKTLHTLKKIDGFILNGLTKKNSTYVE
protein production: failed

MGPLVKEKYEEVEQIPLKKPHIVSLIGGFGYREPIFRKVLTTAALDSGINYTLISGPSLDPSKFKEIPKNVQILRFVGDTFPYIRSSDAVIAPGGHSTMMEALSFGTPILSFPDEGHSEQENNAAVIEEEGYGRMLSYSTPPEVILECIREVLEDKKYRDKVKRLQRLASELDGLEHHHHHH
protein production: not failed

MTAVRRIRAAALPDLPDASWSNALLVGEELVMSGMTAHPATRQAAERGAALDAHAQALVVLGKVKALLEAAGGHVGNLYKLNVYVTRIADKDAIGRARQEFFAGQGTFPASTLVEVSGLVFPELLVEIDAWARLDIDLANCDEA
protein production: not failed
